According to US20210371516A1:

B1: PTA-2358 VH1/VK1 IgG1 antibody (antibody, V domains shown)
VH: EVQLVQSGAELKKPGASVKLSCTASGFNIKDYYMHWVKQAPGQGLEWIGWIDPGNGDTECAPKFQGRATLTADTSINTAYLELSRLRSDDTAVYYCNAPYYSGSSHFDYWGQGTTVTVSS
VL: DIVLTQSPDSLAVSLGERATINCRASKSVSASGYSFLHWYQQKPGQPPKLLIYLASNLESGVPDRFSGSGSGTDFTLTISSLQEEDVATYYCQHSRELRTFGQGTKLEIK
B2: PTA-2358 VH5/VK3 IgG1 antibody (antibody, V domains shown)
VH: EVQLVQSGAEVKKPGASVKVSCTASGFNIKDYYMHWVRQAPGQGLEWIGWIDPGNGDTECAPKFQGRATITADTSISTAYMELSRLRSDDTAVYYCNAPYYSGSSHFDYWGQGTTVTVSS
VL: DIVMTQSPDSLAVSLGERATINCRASKSVSASGYSFLHWYQQKPGQPPKLLIYLASNLESGVPDRFSGSGSGTDFTLTISSLQAEDVAVYYCQHSRELRTFGQGTKLEIK
B3: PTA-2358 VH1/VK2 IgG1 antibody (antibody, V domains shown)
VH: EVQLVQSGAELKKPGASVKLSCTASGFNIKDYYMHWVKQAPGQGLEWIGWIDPGNGDTECAPKFQGRATLTADTSINTAYLELSRLRSDDTAVYYCNAPYYSGSSHFDYWGQGTTVTVSS
VL: DIVLTQSPDSLAVSLGERATINCRASKSVSASGYSFLHWYQQKPGQPPKLLIYLASNLESGVPDRFSGSGSGTDFTLTISSLQAEDVATYYCQHSRELRTFGQGTKLEIK
B4: PTA-2358 VH4/VK3 IgG1 antibody (antibody, V domains shown)
VH: EVQLVQSGAEVKKPGASVKLSCTASGFNIKDYYMHWVRQAPGQGLEWIGWIDPGNGDTECAPKFQGRATLTADTSISTAYLELSRLRSDDTAVYYCNAPYYSGSSHFDYWGQGTTVTVSS
VL: DIVMTQSPDSLAVSLGERATINCRASKSVSASGYSFLHWYQQKPGQPPKLLIYLASNLESGVPDRFSGSGSGTDFTLTISSLQAEDVAVYYCQHSRELRTFGQGTKLEIK
B5: PTA-2358 VH3/VK1 IgG1 antibody (antibody, V domains shown)
VH: EVQLVQSGAEVKKPGASVKLSCTASGFNIKDYYMHWVRQAPGQGLEWIGWIDPGNGDTECAPKFQGRATLTADTSINTAYLELSRLRSDDTAVYYCNAPYYSGSSHFDYWGQGTTVTVSS
VL: DIVLTQSPDSLAVSLGERATINCRASKSVSASGYSFLHWYQQKPGQPPKLLIYLASNLESGVPDRFSGSGSGTDFTLTISSLQEEDVATYYCQHSRELRTFGQGTKLEIK
B6: PTA-2358 VH3/VK2 IgG1 antibody (antibody, V domains shown)
VH: EVQLVQSGAEVKKPGASVKLSCTASGFNIKDYYMHWVRQAPGQGLEWIGWIDPGNGDTECAPKFQGRATLTADTSINTAYLELSRLRSDDTAVYYCNAPYYSGSSHFDYWGQGTTVTVSS
VL: DIVLTQSPDSLAVSLGERATINCRASKSVSASGYSFLHWYQQKPGQPPKLLIYLASNLESGVPDRFSGSGSGTDFTLTISSLQAEDVATYYCQHSRELRTFGQGTKLEIK
B7: PTA-2358 VH3/VK3 IgG1 antibody (antibody, V domains shown)
VH: EVQLVQSGAEVKKPGASVKLSCTASGFNIKDYYMHWVRQAPGQGLEWIGWIDPGNGDTECAPKFQGRATLTADTSINTAYLELSRLRSDDTAVYYCNAPYYSGSSHFDYWGQGTTVTVSS
VL: DIVMTQSPDSLAVSLGERATINCRASKSVSASGYSFLHWYQQKPGQPPKLLIYLASNLESGVPDRFSGSGSGTDFTLTISSLQAEDVAVYYCQHSRELRTFGQGTKLEIK
B8: PTA-2358 VH1/VK3 IgG1 antibody (antibody, V domains shown)
VH: EVQLVQSGAELKKPGASVKLSCTASGFNIKDYYMHWVKQAPGQGLEWIGWIDPGNGDTECAPKFQGRATLTADTSINTAYLELSRLRSDDTAVYYCNAPYYSGSSHFDYWGQGTTVTVSS
VL: DIVMTQSPDSLAVSLGERATINCRASKSVSASGYSFLHWYQQKPGQPPKLLIYLASNLESGVPDRFSGSGSGTDFTLTISSLQAEDVAVYYCQHSRELRTFGQGTKLEIK
B9: PTA-2358 VH2/VK3 IgG1 antibody (antibody, V domains shown)
VH: EVQLVQSGAEVKKPGASVKLSCTASGFNIKDYYMHWVKQAPGQGLEWIGWIDPGNGDTECAPKFQGRATLTADTSINTAYLELSRLRSDDTAVYYCNAPYYSGSSHFDYWGQGTTVTVSS
VL: DIVMTQSPDSLAVSLGERATINCRASKSVSASGYSFLHWYQQKPGQPPKLLIYLASNLESGVPDRFSGSGSGTDFTLTISSLQAEDVAVYYCQHSRELRTFGQGTKLEIK
B10: PTA-2358 VH2/VK1 IgG1 antibody (antibody, V domains shown)
VH: EVQLVQSGAEVKKPGASVKLSCTASGFNIKDYYMHWVKQAPGQGLEWIGWIDPGNGDTECAPKFQGRATLTADTSINTAYLELSRLRSDDTAVYYCNAPYYSGSSHFDYWGQGTTVTVSS
VL: DIVLTQSPDSLAVSLGERATINCRASKSVSASGYSFLHWYQQKPGQPPKLLIYLASNLESGVPDRFSGSGSGTDFTLTISSLQEEDVATYYCQHSRELRTFGQGTKLEIK
B11: PTA-2357 VH5/VK2 IgG1 antibody (antibody, V domains shown)
VH: QVQLVQSGAEVKKPGASVKVSCKGSGYPFTDYTIHWVRQAPGQGLEWIGHISTYSGNTNNNQKFKGRVTMTVDKSTSTAYMELRSLRSDDTAVYYCARGDYYGSFYKFEYWGQGTTVTVSS
VL: DIKMTQSPSSLSASVGDRVTITCGASENIYGALNWFQRKPGKAPKLLIYGATNLADGMPSRFSGSGSGRDFTLTISSLQPEDFATYFCQNVLSIPYTFGQGTKLEIK
B12: PTA-2357 VH1/VK1 IgG1 antibody (antibody, V domains shown)
VH: QVQLVQSGPELKKPGASVKVSCKGSGYPFTDYTIHWVRQAHGQGLEWIGHISTYSGNTNNNQKFKGRATMTVDKSTSTAYMELRSLRSDDSTVYYCARGDYYGSFYKFEYWGQGTTVTVSS
VL: DIKMTQSPSSLSASVGDRVTITCGASENIYGALNWFQRKQGKAPKLLIYGATNLADGMPSRFSGSGSGRDFTLTISSLQPEDFATYFCQNVLSIPYTFGQGTQLEIK
B13: PTA-2357 VH5/VK1 IgG1 antibody (antibody, V domains shown)
VH: QVQLVQSGAEVKKPGASVKVSCKGSGYPFTDYTIHWVRQAPGQGLEWIGHISTYSGNTNNNQKFKGRVTMTVDKSTSTAYMELRSLRSDDTAVYYCARGDYYGSFYKFEYWGQGTTVTVSS
VL: DIKMTQSPSSLSASVGDRVTITCGASENIYGALNWFQRKQGKAPKLLIYGATNLADGMPSRFSGSGSGRDFTLTISSLQPEDFATYFCQNVLSIPYTFGQGTQLEIK
B14: PTA-2357 VH2/VK1 IgG1 antibody (antibody, V domains shown)
VH: QVQLVQSGAEVKKPGASVKVSCKGSGYPFTDYTIHWVRQAHGQGLEWIGHISTYSGNTNNNQKFKGRATMTVDKSTSTAYMELRSLRSDDSTVYYCARGDYYGSFYKFEYWGQGTTVTVSS
VL: DIKMTQSPSSLSASVGDRVTITCGASENIYGALNWFQRKQGKAPKLLIYGATNLADGMPSRFSGSGSGRDFTLTISSLQPEDFATYFCQNVLSIPYTFGQGTQLEIK
B15: PTA-2357 VH5/VK3 IgG1 antibody (antibody, V domains shown)
VH: QVQLVQSGAEVKKPGASVKVSCKGSGYPFTDYTIHWVRQAPGQGLEWIGHISTYSGNTNNNQKFKGRVTMTVDKSTSTAYMELRSLRSDDTAVYYCARGDYYGSFYKFEYWGQGTTVTVSS
VL: DIQMTQSPSSLSASVGDRVTITCGASENIYGALNWFQRKPGKAPKLLIYGATNLADGMPSRFSGSGSGRDFTLTISSLQPEDFATYFCQNVLSIPYTFGQGTKLEIK
B16: PTA-2357 VH3/VK3 IgG1 antibody (antibody, V domains shown)
VH: QVQLVQSGAEVKKPGASVKVSCKGSGYPFTDYTIHWVRQAPGQGLEWIGHISTYSGNTNNNQKFKGRATMTVDKSTSTAYMELRSLRSDDTTVYYCARGDYYGSFYKFEYWGQGTTVTVSS
VL: DIQMTQSPSSLSASVGDRVTITCGASENIYGALNWFQRKPGKAPKLLIYGATNLADGMPSRFSGSGSGRDFTLTISSLQPEDFATYFCQNVLSIPYTFGQGTKLEIK
B17: PTA-2357 VH4/VK3 IgG1 antibody (antibody, V domains shown)
VH: QVQLVQSGAEVKKPGASVKVSCKGSGYPFTDYTIHWVRQAPGQGLEWIGHISTYSGNTNNNQKFKGRATMTVDKSTSTAYMELRSLRSDDTAVYYCARGDYYGSFYKFEYWGQGTTVTVSS
VL: DIQMTQSPSSLSASVGDRVTITCGASENIYGALNWFQRKPGKAPKLLIYGATNLADGMPSRFSGSGSGRDFTLTISSLQPEDFATYFCQNVLSIPYTFGQGTKLEIK
B18: PTA-2357 VH4/VK1 IgG1 antibody (antibody, V domains shown)
VH: QVQLVQSGAEVKKPGASVKVSCKGSGYPFTDYTIHWVRQAPGQGLEWIGHISTYSGNTNNNQKFKGRATMTVDKSTSTAYMELRSLRSDDTAVYYCARGDYYGSFYKFEYWGQGTTVTVSS
VL: DIKMTQSPSSLSASVGDRVTITCGASENIYGALNWFQRKQGKAPKLLIYGATNLADGMPSRFSGSGSGRDFTLTISSLQPEDFATYFCQNVLSIPYTFGQGTQLEIK
B19: PTA-2357 VH1/VK3 IgG1 antibody (antibody, V domains shown)
VH: QVQLVQSGPELKKPGASVKVSCKGSGYPFTDYTIHWVRQAHGQGLEWIGHISTYSGNTNNNQKFKGRATMTVDKSTSTAYMELRSLRSDDSTVYYCARGDYYGSFYKFEYWGQGTTVTVSS
VL: DIQMTQSPSSLSASVGDRVTITCGASENIYGALNWFQRKPGKAPKLLIYGATNLADGMPSRFSGSGSGRDFTLTISSLQPEDFATYFCQNVLSIPYTFGQGTKLEIK
B20: PTA-2357 VH3/VK1 IgG1 antibody (antibody, V domains shown)
VH: QVQLVQSGAEVKKPGASVKVSCKGSGYPFTDYTIHWVRQAPGQGLEWIGHISTYSGNTNNNQKFKGRATMTVDKSTSTAYMELRSLRSDDTTVYYCARGDYYGSFYKFEYWGQGTTVTVSS
VL: DIKMTQSPSSLSASVGDRVTITCGASENIYGALNWFQRKQGKAPKLLIYGATNLADGMPSRFSGSGSGRDFTLTISSLQPEDFATYFCQNVLSIPYTFGQGTQLEIK

Columns and labels:
[1] = target: antigen on NCI-H187 classic small cell lung carcinoma cells (ATCC Number: CRL-5804) recognised by PTA-2358; test: competition flow cytometry on NCI-H187 cells against mouse PTA-2358; CHO-K1-derived
[2] = target: antigen on NCI-H187 classic small cell lung carcinoma cells (ATCC Number: CRL-5804) recognised by PTA-2358; test: competition flow cytometry on NCI-H187 cells against mouse PTA-2358; NS0-derived
[3] = target: antigen on NCI-H187 classic small cell lung carcinoma cells (ATCC Number: CRL-5804) recognised by PTA-2357; test: competition flow cytometry on NCI-H187 cells against mouse PTA-2357; CHO-K1-derived

Binder | Relative IC50 (fold of chimeric PTA-2358) [1] | Relative IC50 (fold of chimeric PTA-2358) [2] | Relative IC50 (fold of chimeric PTA-2357) [3]
B1 | 1.09 | 1.11 | –
B2 | > 3 | – | –
B3 | 2.38 | – | –
B4 | > 3 | – | –
B5 | 1.09 | 1.12 | –
B6 | 1.81 | – | –
B7 | 2.43 | – | –
B8 | 2.68 | – | –
B9 | > 3 | – | –
B10 | 1.28 | 1.03 | –
B11 | – | – | 2.43
B12 | – | – | > 3
B13 | – | – | > 3
B14 | – | – | > 3
B15 | – | – | > 3
B16 | – | – | 1.64
B17 | – | – | 2.06
B18 | – | – | > 3
B19 | – | – | 2
B20 | – | – | > 3
